In the supplement of paper PMC9170038:

Test system: MS2 coat protein
Assay: apparent KD of MS2 coat protein; designed switch direction (-1 OFF switch, 1 ON switch): -1; higher = weaker reporter binding
Summary of the method: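 SNAP-549-labelled MS2 coat protein was titrated, doubling from 0.7 or 1.5 nM to 3 µM, over designed RNA switches transcribed on Illumina chips by stalled E. coli RNA polymerase. Runs were done without input, with 200 uM small-molecule ligand, or with an oligonucleotide input. Apparent KD is the per-design median over clusters of curve-fitted normalised fluorescence.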

[1] = Eterna round: R95, input ligand: FMN 200 uM
[2] = Eterna round: R95, input ligand: microRNA oligo, concentration not stated
[3] = Eterna round: R95, input ligand: none
[4] = input ligand: microRNA oligo, concentration not stated

## CUUCAAUCACCAGAGCUCACACUUAUACCUGCUCUGGUGACAUGAGGAUCACCCAUGUUUUUUGCCCGUCUUAUCUU [Sensor v3, turn-off variant 2 (MOD of Leso v.3)] (puzzle: Sensor v3, turn-off variant 2)
[1]
  apparent KD of MS2 coat protein: 86.6 nM
[2]
  apparent KD of MS2 coat protein: 33 nM
[3]
  apparent KD of MS2 coat protein: 97.4 nM

## CGCAUGCAAGGAUAUACUUGCAGUGAUAUUCGAUAAAGUCUACUUGAGGAUCACCCAAGUAGAAGGUGCAUGCG [Exclusion 2 (Mod6.1 JL EX2 4.74 Vienna UCT mod of Mamaed)] (Eterna round: R97, puzzle: Exclusion 2)
Input ligand: FMN 200 uM
  apparent KD of MS2 coat protein: 33.3 nM
Input ligand: none
  apparent KD of MS2 coat protein: 25 nM

## UGGUGUGAAGGAUAUACAUGAGGAUCACCCAUGUAUGAGGUGUGUGUUGAGGUGGAGGGUAGAAGGUCAGGUGG [JR_Exclusion3_Sub013] (puzzle: Exclusion 3)
[2]
  apparent KD of MS2 coat protein: 32.2 nM

## AGCAGACGAGGAUAUAAAUUUAAAUACAUGAGGAUCACCCAUGUAUAAAUGUAUUUAAAUUUAGAAGGCGUCUGCU [E5/12-A1] (Eterna round: R97, puzzle: Exclusion 5)
Input ligand: FMN 200 uM
  apparent KD of MS2 coat protein: 793 nM
Input ligand: none
  apparent KD of MS2 coat protein: 710 nM

## GAUUGACAUGAGGAUCACCCAUGUGAGGAUAUCGGCUGGACCGUGUUGGCUUCCGUUUCGAGAAGGCGCAUAGG [Exclusion 1 V44] (puzzle: Exclusion 1)
[2]
  apparent KD of MS2 coat protein: 23.2 nM

## AGCUUUUUGUUUUUGGGUGACAUGAGGAUCACCCAUGUCUUAUGGGCCCAGUAGUAGUAAGAUAGAAGGGACCCACG [-20.8, -41.27, a 31%] (Eterna round: R97, puzzle: Sensor, turn-off variant 1)
Input ligand: FMN 200 uM
  apparent KD of MS2 coat protein: 639 nM
Input ligand: none
  apparent KD of MS2 coat protein: 731 nM

## UGUUGUUACGCAGGAUAUGAGGAUCACCCAUAUCAGGAUAUCGAAAGAGAACUUCUGAGGAUCACCCAGAAGGGCGGGUUAACA [pwkr exNG2 2xF5 2xFMN.38] (Eterna round: R96, puzzle: Exclusion NG 2)
Input ligand: FMN 200 uM
  apparent KD of MS2 coat protein: 16.9 nM
[4]
  apparent KD of MS2 coat protein: 13.6 nM
Input ligand: none
  apparent KD of MS2 coat protein: 21.2 nM

## UAGUGAGCGUGAGGAAUAUACAUGAGGAUCACCCAUGUUUGCUAAUAUAUUGCUCGUCUUAUAACAACAAUUAACUG [Mod-hoo-honey#abc] (Eterna round: R97, puzzle: Sensor, turn-off variant 1)
Input ligand: FMN 200 uM
  apparent KD of MS2 coat protein: 27.5 nM
Input ligand: none
  apparent KD of MS2 coat protein: 20.9 nM

## AUUAUUUAAGUCAGGAUAUCGUAUUUAAUUAAAUACGAGAAGGGACAUGAGGAUCACCCAUGUAAUAAAUUUUA [JMFs Solution 1] (puzzle: Brourd's mod of Exclusion 4)
[1]
  apparent KD of MS2 coat protein: 24.1 nM
[2]
  apparent KD of MS2 coat protein: 14.2 nM
[3]
  apparent KD of MS2 coat protein: 15.9 nM

## CCCGCACGAGUUAGGAUAUCAUUUGUCGAGAUAGGUGAGAAGGAACUUGAGGAUCACCCAAGUGUCCCGGGAAA [Maquso] (Eterna round: R97, puzzle: Brourd's mod of Exclusion 4)
Input ligand: FMN 200 uM
  apparent KD of MS2 coat protein: 37.5 nM
Input ligand: none
  apparent KD of MS2 coat protein: 20.1 nM

## AAGGGUACUUUCGGAACGACAUGAGGAUCACCCAUGUAUACUGAGGAUAUCCACUACUAAGGACGGGAGAAGGCAGUGUACUGU [Ex NG3 #79] (Eterna round: R96, puzzle: Exclusion NG 3)
Input ligand: FMN 200 uM
  apparent KD of MS2 coat protein: 26.1 nM
[4]
  apparent KD of MS2 coat protein: 12.6 nM
Input ligand: none
  apparent KD of MS2 coat protein: 16.6 nM

## UUAGAUUAUGAAGGAUAUGGAUCUUAUUAUUAACCAGAAGGUCAACUCAACAUGAGGAUCACCCAUGUAUAAAGGGUAUUAGUU (Eterna round: R96, puzzle: Exclusion NG 1)
[4]
  apparent KD of MS2 coat protein: 109 nM

## CCAUAUAACUGAGGAUAUGAUCACCACUAACAUUCAGAAGGCAGACAUGAGGAUCACCCAUGUGAUUUCUCAAUAUUAUACAUC [Prohibition 76 - Jieux - Exclusion NG 1] (Eterna round: R96, puzzle: Exclusion NG 1)
[4]
  apparent KD of MS2 coat protein: 375 nM

## GGUCUUCAAGUCAGGAUAUCGUAUAAUAGAUAUAACGAGAAGGGACAUGAGGAUCACCCAUGUCGUCUCAUCAG [Ex4 #21] (Eterna round: R97, puzzle: Brourd's mod of Exclusion 4)
Input ligand: FMN 200 uM
  apparent KD of MS2 coat protein: 83.9 nM
Input ligand: none
  apparent KD of MS2 coat protein: 27 nM

## UACAUGAGGAUCACCCAUGUUUUGUCGUGUAUGGUAUUUAUCUAGGAUAUCAAGUUACUUAUUUAUGAGAAGGAGAAUAUUAAU [JMF's solution 30] (Eterna round: R96, puzzle: Exclusion NG 3)
Input ligand: FMN 200 uM
  apparent KD of MS2 coat protein: 39.2 nM
[4]
  apparent KD of MS2 coat protein: 21.2 nM
Input ligand: none
  apparent KD of MS2 coat protein: 25.2 nM

## AUGUUAUUCUGAGGAUAUUGUUUAAUCCUCUCACAUGAGGAUCACCCAUGUUUCCGUGUUUACCGCAAGAAGGCAGUUUUGUUU [JR_ExcNG2_Sub026] (Eterna round: R96, puzzle: Exclusion NG 2)
Input ligand: FMN 200 uM
  apparent KD of MS2 coat protein: 63.6 nM
[4]
  apparent KD of MS2 coat protein: 48.7 nM
Input ligand: none
  apparent KD of MS2 coat protein: 61.8 nM

## AGUACUAUGCGUGCUGACAUGCGUAGUGCAGCAGGUGUUACAUGAGGAUCACCCAUGUCCUCAUUUGCUCGUCUUAU [Mat - Sensor v3 - Turn-off var 2 - D15] (puzzle: Sensor v3, turn-off variant 2)
[1]
  apparent KD of MS2 coat protein: 75.7 nM
[2]
  apparent KD of MS2 coat protein: 79.2 nM
[3]
  apparent KD of MS2 coat protein: 80.4 nM

## CGUGACUCAGGAUAUGUAUAAUAUCACAUGAGGAUCACCCAUGUCCAGCGAAAGCUGGAGGCAGAAGGGAGUCACG [Fiskers Ex 5 - 38] (puzzle: Exclusion 5)
[1]
  apparent KD of MS2 coat protein: 43.1 nM
[2]
  apparent KD of MS2 coat protein: 58.8 nM
[3]
  apparent KD of MS2 coat protein: 31.9 nM

## AGUACUAACACGAAAGUGUUAGUACAAUAAGCUUGUGAAACAUGAGGAUCACCCAUGUCCUCAUACGCUCGUCUUAU [salish99_TOv2_r3_055] (puzzle: Sensor v3, turn-off variant 2)
[1]
  apparent KD of MS2 coat protein: 500 nM
[2]
  apparent KD of MS2 coat protein: 789 nM
[3]
  apparent KD of MS2 coat protein: 655 nM

## UGUACUAACACGAUAGUGUUAGUACUAUAAGCUUGUGUUACAUGAGGAUCACCCAUGUCCUCAUAAGCUCGUCUUGA [Mat - Sensor v3 - Turn-off var 2 - D93] (Eterna round: R96, puzzle: Sensor v3, turn-off variant 2)
Input ligand: FMN 200 uM
  apparent KD of MS2 coat protein: 36.8 nM
[4]
  apparent KD of MS2 coat protein: 472 nM
Input ligand: none
  apparent KD of MS2 coat protein: 38.9 nM

## AACCUAGUCAUAGGAUAUACAGGCAAAGCCAAAGUAGAAGGAUGACACAUGAGGAUCACCCAUGUGGUCCUUGAACAAAAUAAC [Esatier] (Eterna round: R96, puzzle: Exclusion NG 1)
[4]
  apparent KD of MS2 coat protein: 24.1 nM

## UCCUCACAUGAGGAUCACCCAUGUCAGGAUAUGCGCGGCCAAAAGGGCUGCUAAGGCAGCAGAAGGGACGUGAA [Rarequtece] (puzzle: Exclusion 1)
[1]
  apparent KD of MS2 coat protein: 18.7 nM
[2]
  apparent KD of MS2 coat protein: 14.1 nM
[3]
  apparent KD of MS2 coat protein: 15 nM

## CCGUAACAUGAGGAUCACCCAUGUCAGGAUAUUCCAAAAUCGUCGAAAGACGAUAACAGAAGAAGGGACAACGG [Fiskxlusion 2 - Jieux - Exclusion 1] (Eterna round: R97, puzzle: Exclusion 1)
Input ligand: FMN 200 uM
  apparent KD of MS2 coat protein: 47.6 nM
Input ligand: none
  apparent KD of MS2 coat protein: 28.9 nM

## UUGCCUAAUGUUAGGAUAUGCGACGGGUGACCGUUGCAGAAGGAACAUGAGGAUCACCCAUGUUUAAUAAAAUC [JL-BMX4-4.43 ViennaUCT mod] (Eterna round: R97, puzzle: Brourd's mod of Exclusion 4)
Input ligand: FMN 200 uM
  apparent KD of MS2 coat protein: 69.3 nM
Input ligand: none
  apparent KD of MS2 coat protein: 14.9 nM

## GCCCUCACAGUGAGGAUAUCUGAGCAUCCCGCUAAGGAGAAGGCACAUGAGGAUCACCCAUGUAAUUGGUUUAA [BmEX4 A.22] (Eterna round: R97, puzzle: Brourd's mod of Exclusion 4)
Input ligand: FMN 200 uM
  apparent KD of MS2 coat protein: 124 nM
Input ligand: none
  apparent KD of MS2 coat protein: 39.8 nM

## ACCUCACUUGAGGAUCACCCAAGUCAGGAUAUACUCGUUUGCCGAAAGACGCGGCAUUGUAGAAGGGACGGGUU [Raortiza] (Eterna round: R97, puzzle: Exclusion 1)
Input ligand: FMN 200 uM
  apparent KD of MS2 coat protein: 26.6 nM
Input ligand: none
  apparent KD of MS2 coat protein: 15.5 nM

## GGUUGGCGAGGAUAUACAUGAGGAUCACCCAUGUGAGAGAAAAAAGUGAGGAAGCAAAGUAGAAGGCGCUGACG [salish99_ex3_r3_034] (puzzle: Exclusion 3)
[1]
  apparent KD of MS2 coat protein: 117 nM
[2]
  apparent KD of MS2 coat protein: 42.8 nM
[3]
  apparent KD of MS2 coat protein: 77.8 nM

## UGUUGUCGCGCAGGAUAUGAGGAUCACCCAUAUAAAGGAUAUGAAAAGAAGGUUCUGAGGAUCACCCAGAAGGGCGGGACAACU [pwkr exNG2 2xF5 2xFMN.18] (Eterna round: R96, puzzle: Exclusion NG 2)
Input ligand: FMN 200 uM
  apparent KD of MS2 coat protein: 347 nM
[4]
  apparent KD of MS2 coat protein: 49 nM
Input ligand: none
  apparent KD of MS2 coat protein: 62.6 nM

## AUUUAGAGAGGAUAUAUAAUGUGAAACAUGAGGAUCACCCAUGUAAUAUUAUGGAUGUAAAUAGAAGGCUCAUUUA [Mat - Exclusion 5 - JL mod - D5] (puzzle: Exclusion 5)
[2]
  apparent KD of MS2 coat protein: 30.2 nM

## UGUUGUUACGCAGGAUAUUGUCAACAGGCAAUAGGAUAUCCGAAAGGAGAAGGAUCGCCAACAGGCGAGAAGGGCGGGUUAACA [pwkr exNG2 2xF7 2xFMN.1] (Eterna round: R96, puzzle: Exclusion NG 2)
Input ligand: FMN 200 uM
  apparent KD of MS2 coat protein: 133 nM
[4]
  apparent KD of MS2 coat protein: 1580 nM
Input ligand: none
  apparent KD of MS2 coat protein: 2630 nM

## UGGAGGUGAGGAUAUACAUGAGGAUCACCCAUGUGGUGAAGUAGAGAGUAGUGGAGUGGUAGAAGGCACGAGUA [Version #1] (Eterna round: R97, puzzle: Exclusion 3)
Input ligand: FMN 200 uM
  apparent KD of MS2 coat protein: 702 nM
Input ligand: none
  apparent KD of MS2 coat protein: 352 nM

## AGUACUAACACGAAAGUGUUAGUACAAUAAGCUUGUGAAACAUGAGGAUCACCCAUGUCCUCAUCAGCUCGUCUUAU [salish99_TOv2_r3_052] (puzzle: Sensor v3, turn-off variant 2)
[1]
  apparent KD of MS2 coat protein: 124 nM
[2]
  apparent KD of MS2 coat protein: 409 nM
[3]
  apparent KD of MS2 coat protein: 191 nM

## GAAUAGAGAGGAUAUGCGAAGUAGGUAGUACGAUAUAUCUGACAUGAGGAUCACCCAUGUAGAAGGCUCAGAUC [EX2 #5] (Eterna round: R97, puzzle: Exclusion 2)
Input ligand: FMN 200 uM
  apparent KD of MS2 coat protein: 34.4 nM
Input ligand: none
  apparent KD of MS2 coat protein: 40.3 nM
